According to paper PMC5026590:

Legend:
[1] = biological target: RyR2-S2814D (CaMKII phosphomimetic), knock-in mouse (mouse (endogenous in ventricular myocytes)) (UniProt E9Q401); assay: FRET or BRET
[2] = biological target: RyR2-S2814A (non-phosphorylatable), knock-in mouse (mouse (endogenous in ventricular myocytes)) (UniProt E9Q401); assay: FRET or BRET

fluorescent DPc10 peptide (F-DPc10; RyR2 residues 2460-2495) (from UniProt P30957 2460-2495)
fold faster binding (wash-in) vs. S2814A myocytes [1]: 2 fold

fluorescent calmodulin (F-CaM) (from UniProt P0DP23 1-149) (natural protein)
Kd [1]: 72 nM | Kd [2]: 20 nM
